Results reported in the DeepSol protein solubility set.

Test: soluble on expression in E. coli; label from the status in PepcDB or PDB records

Sequence | soluble on expression in E. coli
MGSSHHHHHHGKTIFVIVPTNEEQVAFLEALAKQDELNFDWQNPPTEPGQPVVILIPSDMVEWFLEMLKAKGIPFTVYVEEGGSENLYFQGGGGGGVRYVQRPWFSPLGFMASSPTAYAPMMTCIALALIFPFRYQISEYFERQRDGVHVELRRKAVKYYAEMERMHRRQALVNLESIQDDNAPHRLSAVLSVESIQAGHLDQEYNYWYAHERDAIRAEKLMMEIRELKAKMPADSA | not soluble
MSNSSMSVVILAAGKGTRMYSDLPKVLHPLAGKPMVQHVIDAAMKLGAQHVHLVYGHGGELLKKTLADPSLNWVLQAEQLGTGHAMQQAAPHFADDEDILMLYGDVPLISVDTLQRLLAAKPEGGIGLLTVKLDNPSGYGRIVRENGDVVGIVEHKDASDAQREINEINTGILVANGRDLKRWLSLLDNNNAQGEFYITDIIALAHADGKKIATVHPTRLSEVEGVNNRLQLSALERVFQTEQAEKLLLAGVMLLDPSRFDLRGELTHGRDITIDTNVIIEGHVILGDRVRIGTGCVLKNCVIGDDSEISPYTVLEDARLDANCTVGPFARLRPGAELAEGAHVGNFVEIKKARLGKGSKAGHLSYLGDAEIGAGVNIGAGTITCNYDGANKFKTIIGDDVFVGSDTQLVAPVTVANGATIGAGTTVTRDVAENELVISRVKQVHIQGWKRPVKKK | soluble
MGSDKIHHHHHHMHFDIKDLKLFLAISEEGSITRGAEKTYMSAASGSVRIRNLEQSINLRLLYRSSKGITLSSAGETFKHHASLIVNQMEMLRSDMQEHVKGIKGHVRIFSSITAIAEYLPPLLSHFLTLYNDVNIDLREYPSPEIVRSVIEGKTDLGIVAGNITTDNLEILPFRTDRLVLITATDHPFADRKSVTFHELIQYEQISLPEGTGMFEFIRKKAELVPSKLKIRIQVGNFETFCRMVEAKVGIGIMPHSAASRLRQLHEFSIIDLDEFWSLRKLQICARSFDKLPGFTQKLVTMLTAQTE | not soluble
VLHQPPAMSSALGTTIRLTCTLRNDHDIGVYSVYWYQQRPGHPPRFLLRYFSQSDKSQGPQVPPRFSGSKDVARNRGYLSISELQPEDEAMYYCAMGARSTHVFGSGTQLTVLSAA | soluble
MTEVEKSRSGRIVKRKVFADFQQLDDDLKSITTEELRESASESKKLRLGPTRRSCRNIPTNYEELKAKTDAGIIPETVYYRASNNSMYIPSITADMLKNDGNDLTVQTRSDKYFKYNRVRQSTKIDYAEPEKVYDIIYAVRKRPILWDQRLICHRNSNLSRRAWDQLDLELGIDEEYPLARRKQIWKSKRDYFVSAVNAANLRKWIYADALEFYRPMINFRTTFCLRPTVAQPSQSVHDKLVLADKNIQCTPGDKKNVLTFLLKSLYDTGMSSPEMMAEHGLEILKIFKKNAESSNLKLN | not soluble
MDQPISVTLSSTTDPLWRSCHEYDNEMVITVNGRRIFPTLEYTVTGLDTFKLYSMCMHLDLVDDKKLRFTGGQWAESVSTEKKDPPRKVWHHNGSQTGKDWMLRNVSFDQIRITNRKSKEDGNASYVHLLTQHRYIPVLTIYEGDQLVHTARIPHSQFISVTAYHKGELNTLKTNNNPYSTGSRKDRRRERQSPVYSEGTSSEKSISPPPAKKIKDMAPALPDYSVISKPNLLQSLIFPMIAEQPSTSQSPPAPPVFPFNPDLQMQMLQPFMLPQFGFPCGFPSINPFMNPFLTPFTSMFPTPTVSPDGEGVKLEPEAFVEV | not soluble
PAKLGYWKLRGLAQPVRLFLEYLGEEYEEHLYGRDDREKWMSEKFNMGLDLPNLPYYIDDKCKLTQSVAIMRYIADKHGMLGTTPEERARISMIEGAAMDLRIGFGRVCYNPKFEEVKEEYVKELPKTLKMWSDFLGDRHYLTGSSVSHVDFMLYETLDSIRYLAPHCLDEFPKLKEFKSRIEALPKIKAYMESKRFIKWPLNGWAASFGAGDAPPS | soluble
MGSDKIHHHHHHMSKHALKLIPSSTEHADVPNDCKNCGAYHLCMSLWLKTADSSLLERVVKKKQVFKRGEVLYRMGQPLEYIYVIRGGSVKTCVSTEDGQVQVMGFHAAGELLGLNAISNREHKCEARAMGVTSVCEVSVERFEELAKKDPAIQYEILKIMSAEIHHGQELLLLLGKHNAEERIAIFLLNLSRQFEQRHCSATEFTLCMSRSDIGNYLGIAEETVCRIFARFQDDGLISSEYRNVKLKDIKRLEQIANQRPQRSLRQTNVASLYF | not soluble
MMSPRIGLTLQKIVETAAEIADANGVQEVTLASLAQTLGVRSPSLYNHVKGLQDVRKNLGIYGIKKLHNRLEEAAEDKRMDEAIHALGEAYVAFVRKHPGLYEATFLRDEEVRKAGDGIVKLCLQVLQQYGLEGENALHATRGFRSICHGFASIEQQGGFGLPLDLDISLHVLLETFIKGLRE | soluble
MNIFTEAAKLEEQNCPFAMAQIVDSRGSTPRHSAQMLVRADGSIVGTIGGGMVERKVIEESLQALQERKPRLFHGRMARNGADAVGSDCGGAMSVFISVHGMRPRLVLIGAGHVNRAIAQSAALLGFDIAVADIYRESLNPELFPPSTTLLHAESFGAAVEALDIRPDNFVLIATNNQDREALDKLIEQPIAWLGLLASRRKVQLFLRQLREKGVAEEHIARLHAPVGYNIGAETPQEIAISVLAEILQVKNNAPGGLMMKPSHPSGHQLVVIRGAGDIASGVALRLYHAGFKVIMLEVEKPTVIRCTVAFAQAVFDGEMTVEGVTARLATSSAEAMKLTERGFIPVMVDPACSLLDELKPLCVVDAILAKQNLGTRADMAPVTIALGPGFTAGKDCHAVIETNRGHWLGQVIYSGCAQENTGVPGNIMGHTTRRVIRAPAAGIMRSNVKLGDLVKEGDVIAWIGEHEIKAPLTGMVRGLLNDGLAVVGGFKIGDIDPRGETADFTSVSDKARAIGGGVLEALMMLMHQGVKATKEVLEVALEHHHHHH | not soluble
MAHHHHHHMVMYDPAAPNNYRDVKVMWWKRAREDERKNDISRSLAAAAEAGSSPFDMPDMMRMAPRDELAYDILGGSGDTMSLHLSAEELHQRRVRQSAALGITTAMNLEREELEAAHKARVAAGMDRRGRIGQKLGKLMSVAATRENATKTNTTSDHVGDGINTSAGEMTPATTMATSTTTSLPGITAPLVFQRSELAAGGYVVREDVGALEKRKTHYGKPSSTILIRFVRDGPPVEVFDDTSNKNVGSGTLRNAFLENIQDLCGQCGVVRSLRYMVLDDGKRAALRARLENEREEVSAASADVETRLAREMIRVLVRFDTVANAFKALEMLQQRHGSNWDVCFFSTQLFDVGALGPAEGESLCCA | not soluble
MIVVKVGGAEGINYEAVAKDAASLWKEGVKLLLVHGGSAETNKVAEALGHPPRFLTHPGGQVSRLTDRKTLEIFEMVYCGLVNKRLVELLQKEGANAIGLSGLDGRLFVGRRKTAVKYVENGKVKVHRGDYTGTVEEVNKALLDLLLQAGYLPVLTPPALSYENEAINTDGDQIAALLATLYGAEALVYLSNVPGLLARYPDEASLVREIPVERIEDPEYLALAQGRMKRKVMGAVEAVKGGVKRVVFADGRVENPIRRALSGEGTVVR | soluble
APRSVAMVVPQGSDIRQLSDLRGKRIALNKGSNVHWLLLQILEDAGLGLNDVRVVYTPPKYPLTASDYLAVDAWMMWDPLLSDAEHTGELRVVASGEGRVNNHQFYLSRRDYLAQHGDIMRRLLTELTHTGQFIDSHRGEAARLLSAELGI | not soluble
GSVRPVVGEIAANSIAAEAQIAPGTELKAVDGIETPDWDAVRLQMVDKIGDESTTITVAPFGSDQRRDVKLDLRHWAFEPDKEDPVSSLGIRPRGPQ | soluble
MQPSIAPSTPIPRQETVELVYRIFGDVLVPLEQVRERWFRNLNKENFSKALACGRIALPVTTLDDSHKAMQFVALDHLAAYVDQRANQAGSARRAQPGADSIAS | not soluble
MTAQTHNDVAVCWNQNANQWTSDVRNGYDVYRDFFTLPAFLQFLPTMADLNVIDFGCGEGSNTRHFAQMGAKVVGIDISNGLIEHARQAERVDPVGITYKIVSYSSDTGFPASSFDAVVSTMALMDGPDLQGAMHEAYRLLRPGGFVAFSVLHPCFITPGWQWQKDENGQTTGLCTSRYFDKSGFTENWKFGNRPKDENVAPFAVPRFPRTIGDYINAVASVGFRISKIEEPQPTEEACKAIPQLRRWRDLGAFLLLVIAERPKLEHHHHHH | soluble
MRPIPEGYEAVFETVVTPEMTVRFEELGPVHPVYATYWMVKHMELAGRKIILPFLEEGEEGIGSYVEARHLASALPGMRVRVVARHEKTEGNRVYARVEAYNELGDLIGVGRTEQVILPKAKVEALFRRLKERWEAERSPS | soluble
MGSDKIHHHHHHETQPESAAFTAPSTDNPIRINFNENPLGMSPKAQAAARDAVVKANRYAKNEILMLGNKLAAHHQVEAPSILLTAGSSEGIRAAIEAYASLEAQLVIPELTYGDGEHFAKIAGMKVTKVKMLDNWAFDIEGLKAAVAAYSGPSIVYLVNPNNPTGTITPADVIEPWIASKPANTMFIVDEAYAEFVNDPRFRSISPMITQGAENIILLKTFSKIHAMAGMRVGYAVAHPTVIALMGRYVAGEKINFSGVDAALASMNDSAFITYSKKSNDVSRQILLKALEDLKLPYLPSEGNFVFHQLVVPLKDYQTHMADAGVLIGRAFPPADNWCRISLGTPQEMQWVADTMREFRKKSWI | not soluble
MDHALFTHFVGRPRHCRLEMLILDEQVSKRSWDTTVYHRRRKHLPRRRAPCGPQRPAEIPKRRKKAAVLLFWHDLCWLFRRLFFPREDSEPLMSDPARSPEEEELEHHHHHH | not soluble
MSLFQMSYYYSGLGWDFIQHVDQTNGVLNVVSPDFFYIRKDGSLLLRSANPDVIKALHRRKLKVVPFLSNHWDQDLGRFALMNRVLLAKQISHAIEELDLDGVNIDIENLTEKDRNLFTDFIRLVRKSIPRHKEVSVAVAANPFGWTKGWHGSYDYEYLAKYADYLMVMAYDESRLAGPTASVGWVEKSIQYVLTQKISPQKLVLGLPFYGRCWMEGQSASQAIPLYLVVSKKAEGHHHHHH | not soluble
MEKFNNIAQLKDSGLKVTGPRLKILDLFETHAEEHLSAEDVYRILLEEGVEIGVATIYRVLTQFEQAGILQRHHFETGKAVYELDKGDHHDHIVCVKCGEVTEFHNPEIEALQDKIAEENGYRIVDHALYMYGVCSDCQAKGKR | not soluble
MAHHHHHHMGTLEAQTQGPGSMMETDATAEAAAVAYEDIITRFGAAPITDDLLKRFETVTGTKAHPMLRRGLFYAHRDFEEFLSYYEKGHPIYIYTGRGPSSGALHLGHLLPFIFTKYLQDAFKCYVVIQITDDEKFLRNRSLSYAEVDSYTRENIKDIIACGFDPDKTFIFINSQYLSLKNRYRFSCLVDRMLPISQLRASFGFSNDANVGYAAFPPKQMLPVYSTYFDGLPFTRVPLPVGTGNEDAADAVSTKKASKKTPKKDAVLSPVHVVEELFPDSKRYQKAMCLIASGIEQDPYFRLARDLAPRMGHPKNAYLLGKFLPGLQGSGTKMSASDPNSAIYLTDTPAQIKNKINRYAFSGGRDTEEEHRAFGADLSVDVSVRYLEVFMKDDAELEKLKADYKTGKLLTGEVKATLIGILQGLIKEHAERRDKVDTTMIESFTVKKELQ | soluble
MESLKSNLFLTREAYLEAFETIMTPLKTAILTSEKPGVNFGSSGAVYDQQHAEMEALIRPLWGIGPYWVTCKDDVLRDAYVEKLIAGTDPSSPDYWGVIVDYDQYIVEAAALSLTLLLHKTYFWSCFSEKQQENIMVWLNKALGCKIPKNNWTFFKVLIRLALEGCGQVINQAELEEELALIECMYLGDGWYMDGKTTQRDYYISFAFHYYSLIYVKFMRERDPIRAKRFTERAVMFAQDYLYYFDEEGEALPYGRSQTYRFAQGAFFAALIFAEVEALPWGQIKTLLAKHLHCWMQQAIFTYDGRLSIGYHYENLVMAEGYNAPGSPYWAFKTFLLLAVDQDHPFWRAEPLAIKREEKRLEHHHHHH | not soluble
